Measured values from the supplement of paper PMC11246515.
± gives the standard deviation of the averaged measurements.

Assay: total protein half-life in vivo (active degradation + dilution); higher = more stable protein
[1] = E. coli NCM3722 delta-clpP delta-lon delta-hslV, growth: N-lim chemostat, doubling time 6 h
[2] = E. coli NCM3722 delta-hslV, growth: N-lim chemostat, doubling time 6 h
[3] = E. coli NCM3722 delta-lon, growth: N-lim chemostat, doubling time 6 h
[4] = E. coli NCM3722 delta-smpB, growth: N-lim chemostat, doubling time 6 h
[5] = wild type E. coli NCM3722, growth: C-lim chemostat, doubling time 3 h
[6] = wild type E. coli NCM3722, growth: C-lim chemostat, doubling time 6 h
[7] = wild type E. coli NCM3722, growth: C-lim chemostat, doubling time 12 h
[8] = wild type E. coli NCM3722, growth: N-lim chemostat, doubling time 12 h
[9] = wild type E. coli NCM3722, growth: P-lim chemostat, doubling time 6 h
[10] = wild type E. coli NCM3722, growth: P-lim chemostat, doubling time 12 h
[11] = E. coli NCM3722 delta-clpP, growth: N-lim chemostat, doubling time 6 h
[12] = wild type E. coli NCM3722, growth: N-lim chemostat, doubling time 6 h

Sequence | total protein half-life in vivo [1] [h] | total protein half-life in vivo [2] [h] | total protein half-life in vivo [3] [h] | total protein half-life in vivo [4] [h] | total protein half-life in vivo [5] [h] | total protein half-life in vivo [6] [h] | total protein half-life in vivo [7] [h] | total protein half-life in vivo [8] [h] | total protein half-life in vivo [9] [h] | total protein half-life in vivo [10] [h] | total protein half-life in vivo [11] [h] | total protein half-life in vivo [12] [h]
MEWLVKKSCCNKQDNRHVLMLCDAGGAIKMIAEVKSDFAVKVGDLLSPLQNALYCINREKLHTVKVLSASSYSPDEWERQCKVAGKTQ | 5.09 ± 0.77 | 3.24 | 3.35 | 4.9 | 2.04 ± 0.53 | 4.32 | 7.64 ± 1.4 | 4.88 | 4.39 | 7.16 ± 1.1 |  | 
MDLTQLEMFNAVAEAGSITQAAAKVHRVPSNLTTRLRQLETELGVDLFIRENQRLRLSPAGHNFLRYSQQILALVDEARSVVAGDEPQGLFSLGSLESTAAVRIPATLAEFNRRYPKIQFSLSTGPSGTMLDGVLEGKLNAAFIDGPINHTAIDGIPVYREELMIVTPQGYAPVTRASQVNGSNIYAFRANCSYRRHFESWFHADGAAPGTIHEMESYHGMLACVIAGAGIALIPRSMLESMPGHHQVEAWPLAEQWRWLTTWLVWRRGAKTRPLEAFIQLLDVPDSARQGYQ | > 8 | 4.72 | 4.66 | 4.76 | 2.76 |  | 8.27 | 12.1 ± 2.1 | 6.44 ± 1 | 10.7 ± 2.1 | 5.2 | 
MTAIAPVITIDGPSGAGKGTLCKAMAEALQWHLLDSGAIYRVLALAALHHHVDVASEDALVPLASHLDVRFVSTNGNLEVILEGEDVSGEIRTQEVANAASQVAAFPRVREALLRRQRAFRELPGLIADGRDMGTVVFPDAPVKIFLDASSEERAHRRMLQLQEKGFSVNFERLLAEIKERDDRDRNRAVAPLVPAADALVLDSTTLSIEQVIEKALQYARQKLALA [P0A6I0] | 4.56 ± 0.24 | 4.14 ± 0.16 | 4.79 ± 0.34 | 3.86 ± 0.083 | 3.05 ± 0.14 | 5.44 ± 0.4 | 9.23 ± 1.1 | 6.34 ± 1.1 | 4.71 ± 0.26 | 9.34 ± 0.78 | 4.93 ± 0.48 | 4.15 ± 0.046
MNEFFPLASAAGMTVGLAVCALIVGLALAMFFAVWESAKWRPVAWAGSALVTILRGLPEILVVLFIYFGSSQLLLTLSDGFTINLGFVQIPVQMDIENFDVSPFLCGVIALSLLYAAYASQTLRGALKAVPVGQWESGQALGLSKSAIFFRLVMPQMWRHALPGLGNQWLVLLKDTALVSLISVNDLMLQTKSIATRTQEPFTWYIVAAAIYLVITLLSQYILKRIDLRATRFERRPS [P0AE34] | 7.86 | 6.66 ± 0.82 | 6.45 |  | 2.92 ± 0.51 | 6.02 ± 0.79 | 11.9 ± 0.15 | 11.5 ± 2.6 | 6.78 | 12.3 ± 0.57 | 6.25 | 
MEAIKGSDVNVPDAVFAWMLDGRGGVKPLENTDVIDEAHPCWLHLNYVHHDSAQWLATTPLLPNNVRDALAGESTRPRVSRLGEGTLITLRCINGSTDERPDQLVAMRVYMDGRLIVSTRQRKVLALDDVVSDLEEGTGPTDCGGWLVDVCDALTDHSSEFIEQLHDKIIDLEDNLLDQQIPPRGFLALLRKQLIVMRRYMAPQRDVYARLASERLPWMSDDQRRRMQDIADRLGRGLDEIDACIARTGVMADEIAQVMQENLARRTYTMSLMAMVFLPSTFLTGLFGVNLGGIPGGGWQFGFSIFCILLVVLIGGVALWLHRSKWL | 6.29 ± 0.86 | 5.56 ± 0.95 | 6.34 ± 0.75 | 5.71 ± 0.2 | 3.06 ± 0.47 | 6.04 ± 0.35 | 11.5 ± 0.33 | 11.9 ± 0.9 | 5.31 ± 0.072 | 8.98 ± 0.42 | 5.99 ± 0.61 | 6.07 ± 0.2
MRKFIFVLLTLLLVSPFSFAMKGIIWQPQNRDSQVTDTQWQGLMSQLRLQGFDTLVLQWTRYGDAFTQPEQRTLLFKRAAAAQQAGLKLIVGLNADPEFFMHQKQSSAALESYLNRLLAADLQQARLWSAAPGITPDGWYISAEIDDLNWRSEAARQPLLTWLNNAQRLISDVSAKPVYISSFFAGNMSPDGYRQLLEHVKATGVNVWVQDGSGVDKLTAEQRERYLQASADCQSPAPASGVVYELFVAGKGKTFTAKPKPDAEIASLLAKRSSCGKDTLYFSLRYLPVAHGILEY | 5.13 ± 0.23 |  | 6.25 ± 0.24 | 5.08 ± 1.3 |  | 6.17 ± 0.52 |  | 11.8 ± 1.6 | 5.96 ± 0.13 | 12.5 ± 0.58 | 6.05 ± 0.4 | 5.78 ± 0.16
MFTIKTDDLTHPAVQALVAYHISGMLQQSPPESSHALDVQKLRNPTVTFWSVWEGEQLAGIGALKLLDDKHGELKSMRTAPNYLRRGVASLILRHILQVAQDRCLHRLSLETGTQAGFTACHQLYLKHGFADCEPFADYRLDPHSRFLSLTLCENNELP |  | 0.809 | 0.314 | 0.854 ± 0.023 |  |  |  | 1.92 |  |  | 1.46 ± 0.029 | 1.03 ± 0.61
